Measurements taken from article doi:10.1101/2022.09.21.508836 (bioRxiv, 2022).

Molecular target: FIP200 (full length) (human, UniProt Q8TDY2 1-1594)
Assay: pull-down

FIP200 (full length), sequence (Q8TDY2 whole entry): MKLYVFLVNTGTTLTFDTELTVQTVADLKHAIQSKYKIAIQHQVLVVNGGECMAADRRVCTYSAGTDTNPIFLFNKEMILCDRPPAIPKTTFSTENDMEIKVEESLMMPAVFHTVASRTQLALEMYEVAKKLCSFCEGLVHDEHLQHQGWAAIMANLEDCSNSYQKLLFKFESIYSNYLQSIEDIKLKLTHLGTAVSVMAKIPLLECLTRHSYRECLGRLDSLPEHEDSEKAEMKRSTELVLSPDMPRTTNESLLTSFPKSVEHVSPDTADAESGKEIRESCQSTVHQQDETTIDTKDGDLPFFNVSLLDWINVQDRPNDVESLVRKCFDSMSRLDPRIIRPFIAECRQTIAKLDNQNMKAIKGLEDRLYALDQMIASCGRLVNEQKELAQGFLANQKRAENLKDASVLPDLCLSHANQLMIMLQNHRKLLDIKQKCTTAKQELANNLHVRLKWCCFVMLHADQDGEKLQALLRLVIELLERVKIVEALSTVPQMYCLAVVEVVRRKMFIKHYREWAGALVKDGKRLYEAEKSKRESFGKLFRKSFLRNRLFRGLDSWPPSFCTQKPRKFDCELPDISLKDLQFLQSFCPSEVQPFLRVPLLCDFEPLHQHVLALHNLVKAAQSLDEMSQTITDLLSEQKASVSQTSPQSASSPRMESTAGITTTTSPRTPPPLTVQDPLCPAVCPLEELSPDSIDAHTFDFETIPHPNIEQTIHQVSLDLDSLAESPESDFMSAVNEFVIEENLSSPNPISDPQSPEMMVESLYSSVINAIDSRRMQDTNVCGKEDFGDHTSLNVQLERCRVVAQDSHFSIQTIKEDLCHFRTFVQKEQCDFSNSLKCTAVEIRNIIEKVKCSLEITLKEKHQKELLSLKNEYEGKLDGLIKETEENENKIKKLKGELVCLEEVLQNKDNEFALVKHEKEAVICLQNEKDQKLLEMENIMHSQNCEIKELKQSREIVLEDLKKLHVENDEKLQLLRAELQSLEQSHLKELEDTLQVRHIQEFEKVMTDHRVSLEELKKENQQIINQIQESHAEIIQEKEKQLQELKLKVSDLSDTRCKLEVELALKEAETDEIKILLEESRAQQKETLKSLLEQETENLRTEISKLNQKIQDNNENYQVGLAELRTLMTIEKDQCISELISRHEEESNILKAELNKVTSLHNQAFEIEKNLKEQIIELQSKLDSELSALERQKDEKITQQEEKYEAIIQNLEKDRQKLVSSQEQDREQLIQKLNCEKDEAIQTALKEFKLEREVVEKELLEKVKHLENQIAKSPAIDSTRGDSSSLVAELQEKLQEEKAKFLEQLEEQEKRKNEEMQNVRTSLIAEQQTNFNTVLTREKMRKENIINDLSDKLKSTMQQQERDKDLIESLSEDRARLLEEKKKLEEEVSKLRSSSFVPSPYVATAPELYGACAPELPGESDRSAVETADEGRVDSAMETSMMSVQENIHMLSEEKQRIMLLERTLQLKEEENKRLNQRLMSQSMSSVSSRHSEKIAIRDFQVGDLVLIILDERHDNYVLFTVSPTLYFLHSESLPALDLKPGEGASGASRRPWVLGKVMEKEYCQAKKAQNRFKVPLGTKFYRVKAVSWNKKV

B1: ULK1 (full length) (enzyme)
chain: MEPGRGGTETVGKFEFSRKDLIGHGAFAVVFKGRHREKHDLEVAVKCINKKNLAKSQTLLGKEIKILKELKHENIVALYDFQEMANSVYLVMEYCNGGDLADYLHAMRTLSEDTIRLFLQQIAGAMRLLHSKGIIHRDLKPQNILLSNPAGRRANPNSIRVKIADFGFARYLQSNMMAATLCGSPMYMAPEVIMSQHYDGKADLWSIGTIVYQCLTGKAPFQASSPQDLRLFYEKNKTLVPTIPRETSAPLRQLLLALLQRNHKDRMDFDEFFHHPFLDASPSVRKSPPVPVPSYPSSGSGSSSSSSSTSHLASPPSLGEMQQLQKTLASPADTAGFLHSSRDSGGSKDSSCDTDDFVMVPAQFPGDLVAEAPSAKPPPDSLMCSGSSLVASAGLESHGRTPSPSPPCSSSPSPSGRAGPFSSSRCGASVPIPVPTQVQNYQRIERNLQSPTQFQTPRSSAIRRSGSTSPLGFARASPSPPAHAEHGGVLARKMSLGGGRPYTPSPQVGTIPERPGWSGTPSPQGAEMRGGRSPRPGSSAPEHSPRTSGLGCRLHSAPNLSDLHVVRPKLPKPPTDPLGAVFSPPQASPPQPSHGLQSCRNLRGSPKLPDFLQRNPLPPILGSPTKAVPSFDFPKTPSSQNLLALLARQGVVMTPPRNRTLPDLSEVGPFHGQPLGPGLRPGEDPKGPFGRSFSTSRLTDLLLKAAFGTQAPDPGSTESLQEKPMEIAPSAGFGGSLHPGARAGGTSSPSPVVFTVGSPPSGSTPPQGPRTRMFSAGPTGSASSSARHLVPGPCSEAPAPELPAPGHGCSFADPITANLEGAVTFEAPDLPEETLMEQEHTEILRGLRFTLLFVQHVLEIAALKGSASEAAGGPEYQLQESVVADQISLLSREWGFAEQLVLYLKVAELLSSGLQSAIDQIRAGKLCLSSTVKQVVRRLNELYKASVVSCQGLSLRLQRFFLDKQRLLDRIHSITAERLIFSHAVQMVQSAALDEMFQHREGCVPRYHKALLLLEGLQHMLSDQADIENVTKCKLCIERRLSALLTGICA
binding result: binds
